Results taken from patent US20230050440A1.
Residue numbers refer to the chain shown, from its start.

B1: Clone 25 (antibody, V domains shown)
VH: QVQLVQSGAEVKKPGASVKVSCKASGYTFTSYAISWVRQAPGQGLEWMGWISAYNGNTNYAQKLQGRVTMTTDTSTSTAYMELRSLRSDDTAVYYCARDLSSFWSGDVLGAFDIWGQGTMVTVSS
VL: DIQMTQSPSSLSASVGDRVTITCRASQSISSYLNWYQQKPGKAPKLLIYAASSLQSGVPSRFSGSGSGTDFTLTISSLQPEDFATYYCQQSVPPRTFGGGTKVEIK
B2: Clone 16D (antibody, V domains shown)
VH: QVQLVQSGAEVKKPGSSVKVSCKASGGTFSDYPISWVRQAPGQGLEWMGGIIPIVGGANYAQKFQGRVTITADESTSTAYMELSSLRSEDTAVYYCTRQSTWHKLFGTDVWGQGTTVTVSS
VL: DIQMTQSPSSVSASVGDRVTITCRASQGISSWLAWYQQKPGKAPKLLIYAASSLQSGVPSRFSGSGSGTDFTLTISSLQPEDFATYYCQQGDSLPPTFGGGTKVEIK
B3: Clone 16E (antibody, V domains shown)
VH: B2 VH with T97A, L105V, F106Y
VL: B2 VL
B4: Clone 25A (antibody, V domains shown)
VH: B1 VH with N59K
VL: B1 VL
B5: Clone 25B (antibody, V domains shown)
VH: B1 VH with A33P, S35G, A53S
VL: B1 VL
B6: Clone 25C (antibody, V domains shown)
VH: B1 VH with A33P, S35G, A53S, D99G, L100A
VL: B1 VL
B7: Clone 25D (antibody, V domains shown)
VH: B1 VH with A33P, S35G, A53S, S101K
VL: B1 VL
B8: Clone 25E (antibody, V domains shown)
VH: B1 VH with S35A, D99S, L100G
VL: B1 VL
B9: Clone 18 (antibody, V domains shown)
VH: QVQLVQSGAEVKKPGASVKVSCKASGYTFTSYYMSWVRQAPGQGLEWMGIINPSGGSTSYAQKFQGRVTMTRDTSTSTVYMELSSLRSEDTAVYYCARVRYGYADGMDVWGQGTTVTVSS
VL: B2 VL with V11L, G28S, W32Y, A34N, A50G, G91V, D92Y, S93H, P96F
B10: Clone 22 (antibody, V domains shown)
VH: QVQLQESGPGLVKPSETLSLTCAVSGYSISSGYYWAWIRQPPGKGLEWIGSIYHSGSTYYNPSLKSRVTISVDTSKNQFSLKLSSVTAADTAVYYCARQGYYYGSSGSVDFDLWGRGTLVTVSS
VL: DIQMTQSPSSVSASVGDRVTITCRASQGISSWLAWYQQKPGKAPKLLIYAASNLQSGVPSRFSGSGSGTDFTLTISSLQPEDFATYYCQQANSLPPWTFGGGTKVEIK
B11: Clone 16C (antibody, V domains shown)
VH: B2 VH with S30R, D31E, P33A, I52H, V55F, G57T, N59R, F106Y
VL: B2 VL

Legend:
[1] = biological target: dimeric mouse TIGIT-Fc (R&D Systems, 7267-TG) (mouse) (UniProt P86176); assay: BLI (ForteBio), IgG on sensor, avid
[2] = biological target: mouse TIGIT expressed on cells (mouse) (UniProt P86176); assay: flow cytometry, titration on activated mouse splenic T cells
[3] = biological target: mouse TIGIT expressed on cells (mouse) (UniProt P86176); assay: flow cytometry titration, HEK 293 cells expressing mouse TIGIT
[4] = biological target: dimeric mouse TIGIT-Fc (R&D Systems, 7267-TG) (mouse) (UniProt P86176); assay: BLI (ForteBio Octet RED384), IgG on AHQ sensor, 100 nM antigen, 1:1 model
[5] = biological target: mouse TIGIT expressed on cells (mouse) (UniProt P86176); assay: flow cytometry on HEK 293 cells expressing the target, MFI over parental HEK 293

mouse TIGIT expressed on cells (mouse), sequence (P86176 other isoform, or with tags, fused parts or gaps limits assumed, form in doubt): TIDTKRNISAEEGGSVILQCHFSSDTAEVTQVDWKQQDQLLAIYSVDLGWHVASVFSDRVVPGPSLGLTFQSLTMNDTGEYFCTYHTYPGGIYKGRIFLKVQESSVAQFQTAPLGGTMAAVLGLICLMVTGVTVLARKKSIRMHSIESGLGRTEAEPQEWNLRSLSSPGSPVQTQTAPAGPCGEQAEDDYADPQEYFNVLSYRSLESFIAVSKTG
dimeric mouse TIGIT-Fc (R&D Systems, 7267-TG) (mouse), sequence (P86176 other isoform, or with tags, fused parts or gaps limits assumed, form in doubt): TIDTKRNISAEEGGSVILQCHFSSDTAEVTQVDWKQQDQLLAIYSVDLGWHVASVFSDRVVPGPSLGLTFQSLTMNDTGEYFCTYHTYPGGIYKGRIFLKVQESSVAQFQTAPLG

| Binder | Kd [1] | EC50 [2] | EC50 [3] | Kd [4] | FOB (Fold Over Background) [5] |
| --- | --- | --- | --- | --- | --- |
| B1 | 0.967 nM | 2.28 µg/mL | 0.24 µg/mL | 1.1 nM | 117 fold |
| B2 | 2.63 nM | – | – | – | 63 fold |
| B3 | 3.7 nM | – | – | – | 56 fold |
| B4 | 0.823 nM | – | – | – | 119 fold |
| B5 | 0.719 nM | – | – | – | 129 fold |
| B6 | 0.494 nM | – | – | – | 124 fold |
| B7 | 0.58 nM | – | – | – | 137 fold |
| B8 | 0.566 nM | – | – | – | 116 fold |
| B9 | – | – | – | 8.82 nM | – |
| B10 | – | – | – | 10.5 nM | – |
| B11 | 0.801 nM | – | – | – | 99 fold |
